The source of these data is patent US20240317872A1 (WUXI BIOLOGICS IRELAND, published 2024).

B1: T8311-U14T2.G25R-1.uIgG1 (bispecific antibody)
heavy: not shown
light 1: SYELTQPPSVSVSPGQTASITCSGSELPKRYAYWYQQKPGQSIVRVIYKDSERPSGISERFSGSSSGNTATLTISGTQAMDEADYYCSSTYGDRKLPIFGGGTKLTVLGQPKAAPSVTLFPPSSEELQANKATLVCLISDFYPGAVTVAWKADSSPVKAGVETTTPSKQSNNKYAASSYLSLTPEQWKSHKSYSCQVTHEGSTVEKTVAPTECS
light 2: SYVLTQPPSVSVAPGQTARMTCGGDNIGIKIVHWYQQKAGQAPVLVVYDDNDRPSGIPDRFSGSNSGNTATLTISRVAAGDEADYYCQVWDRRSDHVVFGGGTKLTVLPDIQNPDPAVYQLRDSKSSDKSVCLFTDFDSQTQVSQSKDSDVYITDKCVLDMRSMDFKSNSAVAWSQKSDFACANAFQNSIIPEDTFFPSPESS
notes: Symmetric 2+2 format G25R, human IgG1 Fc; PD-L1 x 4-1BB; also called T8311-1
B2: T8311-U14T2.G25R-47.uIgG1 (bispecific antibody)
heavy: not shown
light 1: SYELTQPPSVSVSPGQTASITCSGSELPKRYAYWYQQKPGQSIVRVIYKDSERPSGISERFSGSSSGNTATLTISGTQAMDEADYYCSSTYGDRKLPIFGGGTKLTVLGQPKAAPSVTLFPPSSEELQANKATLVCLISDFYPGAVTVAWKADSSPVKAGVETTTPSKQSNNKYAASSYLSLTPEQWKSHKSYSCQVTHEGSTVEKTVAPTECS
light 2: SYVLTQPPSVSVAPGQTARMTCGGDNIGIKIVHWYQQKAGQAPVLVVYDDNDRPSGIPDRFSGSNSGNTATLTISRVAAGDEADYYCQVWDRRSDHVVFGGGTKLTVLPDIQNPDPAVYQLRDSKSSDKSVCLFTDFDSQTQVCQSKDSDVYITDKCVLDMRSMDFKSNSAVAWSQKSDFACANAFQCSIIPEDTFFPS
notes: also called T8311-47
B3: T8311-U14T2.G25R-56.uIgG1 (bispecific antibody)
heavy: not shown
light 1: SYELTQPPSVSVSPGQTASITCSGSELPKRYAYWYQQKPGQSIVRVIYKDSERPSGISERFSGSSSGNTATLTISGTQAMDEADYYCSSTYGDRKLPIFGGGTKLTVLGQPKAAPSVTLFPPSSEELQANKATLVCLISDFYPGAVTVAWKADSSPVKAGVETTTPSKQSNNKYAASSYLSLTPEQWKSHKSYSCQVTHEGSTVEKTVAPTECS
light 2: SYVLTQPPSVSVAPGQTARMTCGGDNIGIKIVHWYQQKAGQAPVLVVYDDNDRPSGIPDRFSGSNSGNTATLTISRVAAGDEADYYCQVWDRRSDHVVFGGGTKLTVLPDIQNPDPAVYQLRDSKSSDKSVCLFTDFDSQCQVSQSKDSDVYITDKCVLDMRSMDFKSNSAVAWSQKSDFACANAFQNSIICEDTFFPS
notes: also called T8311-56
B4: T8311-U14T2.G25R-48.uIgG1 (bispecific antibody)
heavy: not shown
light 1: SYELTQPPSVSVSPGQTASITCSGSELPKRYAYWYQQKPGQSIVRVIYKDSERPSGISERFSGSSSGNTATLTISGTQAMDEADYYCSSTYGDRKLPIFGGGTKLTVLGQPKAAPSVTLFPPSSEELQANKATLVCLISDFYPGAVTVAWKADSSPVKAGVETTTPSKQSNNKYAASSYLSLTPEQWKSHKSYSCQVTHEGSTVEKTVAPTECS
light 2: SYVLTQPPSVSVAPGQTARMTCGGDNIGIKIVHWYQQKAGQAPVLVVYDDNDRPSGIPDRFSGSNSGNTATLTISRVAAGDEADYYCQVWDRRSDHVVFGGGTKLTVLPDIQNPDPAVYQLRDSKSSDKSVCLFTDFDSQTQVSQCKDSDVYITDKCVLDMRSMDFKSNSAVAWSQKSDFACANAFQCSIIPEDTFFPS
notes: also called T8311-48
B5: T8311-U14T2.G25R-50.uIgG1 (bispecific antibody)
heavy: not shown
light 1: SYELTQPPSVSVSPGQTASITCSGSELPKRYAYWYQQKPGQSIVRVIYKDSERPSGISERFSGSSSGNTATLTISGTQAMDEADYYCSSTYGDRKLPIFGGGTKLTVLGQPKAAPSVTLFPPSSEELQANKATLVCLISDFYPGAVTVAWKADSSPVKAGVETTTPSKQSNNKYAASSYLSLTPEQWKSHKSYSCQVTHEGSTVEKTVAPTECS
light 2: SYVLTQPPSVSVAPGQTARMTCGGDNIGIKIVHWYQQKAGQAPVLVVYDDNDRPSGIPDRFSGSNSGNTATLTISRVAAGDEADYYCQVWDRRSDHVVFGGGTKLTVLPDIQNPDPAVYQLRDSKSSDKSVCLFTDFDSQTCVSQSKDSDVYITDKCVLDMRSMDFKSNSAVAWSQKSDFACANAFQNCIIPEDTFFPS
notes: also called T8311-50
B6: T8311-U14T2.G25R-57.uIgG1 (bispecific antibody)
heavy: not shown
light 1: SYELTQPPSVSVSPGQTASITCSGSELPKRYAYWYQQKPGQSIVRVIYKDSERPSGISERFSGSSSGNTATLTISGTQAMDEADYYCSSTYGDRKLPIFGGGTKLTVLGQPKAAPSVTLFPPSSEELQANKATLVCLISDFYPGAVTVAWKADSSPVKAGVETTTPSKQSNNKYAASSYLSLTPEQWKSHKSYSCQVTHEGSTVEKTVAPTECS
light 2: SYVLTQPPSVSVAPGQTARMTCGGDNIGIKIVHWYQQKAGQAPVLVVYDDNDRPSGIPDRFSGSNSGNTATLTISRVAAGDEADYYCQVWDRRSDHVVFGGGTKLTVLPDIQNPDCAVYQLRDSKSSDKSVCLFTDFDSQTQVSQSKDSDVYITDKCVLDMRSMDFKSNSAVAWSQKSDFACANAFQNSIIPECTFFPS
notes: also called T8311-57; design 57
B7: T8311-U14T2.G25R-52.uIgG1 (bispecific antibody)
heavy: not shown
light 1: SYELTQPPSVSVSPGQTASITCSGSELPKRYAYWYQQKPGQSIVRVIYKDSERPSGISERFSGSSSGNTATLTISGTQAMDEADYYCSSTYGDRKLPIFGGGTKLTVLGQPKAAPSVTLFPPSSEELQANKATLVCLISDFYPGAVTVAWKADSSPVKAGVETTTPSKQSNNKYAASSYLSLTPEQWKSHKSYSCQVTHEGSTVEKTVAPTECS
light 2: SYVLTQPPSVSVAPGQTARMTCGGDNIGIKIVHWYQQKAGQAPVLVVYDDNDRPSGIPDRFSGSNSGNTATLTISRVAAGDEADYYCQVWDRRSDHVVFGGGTKLTVLPDIQNPDPAVYQLRDSKSSDKSVCLFTDFDSQTQVCQSKDSDVYITDKCVLDMRSMDFKSNSAVAWSQKSDFACANAFQNCIIPEDTFFPS
notes: also called T8311-52
B8: T8311-U14T2.G25R-59.uIgG1 (bispecific antibody)
heavy: not shown
light 1: SYELTQPPSVSVSPGQTASITCSGSELPKRYAYWYQQKPGQSIVRVIYKDSERPSGISERFSGSSSGNTATLTISGTQAMDEADYYCSSTYGDRKLPIFGGGTKLTVLGQPKAAPSVTLFPPSSEELQANKATLVCLISDFYPGAVTVAWKADSSPVKAGVETTTPSKQSNNKYAASSYLSLTPEQWKSHKSYSCQVTHEGSTVEKTVAPTECS
light 2: SYVLTQPPSVSVAPGQTARMTCGGDNIGIKIVHWYQQKAGQAPVLVVYDDNDRPSGIPDRFSGSNSGNTATLTISRVAAGDEADYYCQVWDRRSDHVVFGGGTKLTVLPDIQNPDPCVYQLRDSKSSDKSVCLFTDFDSQTQVSQSKDSDVYITDKCVLDMRSMDFKSNSAVAWSQKSDFACANAFQNSIIPEDTCFPS
notes: also called T8311-59
B9: T8311-U14T2.G25R-58.uIgG1 (bispecific antibody)
heavy: not shown
light 1: SYELTQPPSVSVSPGQTASITCSGSELPKRYAYWYQQKPGQSIVRVIYKDSERPSGISERFSGSSSGNTATLTISGTQAMDEADYYCSSTYGDRKLPIFGGGTKLTVLGQPKAAPSVTLFPPSSEELQANKATLVCLISDFYPGAVTVAWKADSSPVKAGVETTTPSKQSNNKYAASSYLSLTPEQWKSHKSYSCQVTHEGSTVEKTVAPTECS
light 2: SYVLTQPPSVSVAPGQTARMTCGGDNIGIKIVHWYQQKAGQAPVLVVYDDNDRPSGIPDRFSGSNSGNTATLTISRVAAGDEADYYCQVWDRRSDHVVFGGGTKLTVLPDIQNPDCAVYQLRDSKSSDKSVCLFTDFDSQTQVSQSKDSDVYITDKCVLDMRSMDFKSNSAVAWSQKSDFACANAFQNSIIPEDCFFPS
notes: also called T8311-58
B10: T8311-U14T2.G25R-53.uIgG1 (bispecific antibody)
heavy: not shown
light 1: SYELTQPPSVSVSPGQTASITCSGSELPKRYAYWYQQKPGQSIVRVIYKDSERPSGISERFSGSSSGNTATLTISGTQAMDEADYYCSSTYGDRKLPIFGGGTKLTVLGQPKAAPSVTLFPPSSEELQANKATLVCLISDFYPGAVTVAWKADSSPVKAGVETTTPSKQSNNKYAASSYLSLTPEQWKSHKSYSCQVTHEGSTVEKTVAPTECS
light 2: SYVLTQPPSVSVAPGQTARMTCGGDNIGIKIVHWYQQKAGQAPVLVVYDDNDRPSGIPDRFSGSNSGNTATLTISRVAAGDEADYYCQVWDRRSDHVVFGGGTKLTVLPDIQNPDPAVYQLRDSKSSDKSVCLFTDFDSQTCVSQSKDSDVYITDKCVLDMRSMDFKSNSAVAWSQKSDFACANAFQNSCIPEDTFFPS
notes: also called T8311-53
B11: T8311-U14T2.G25R-51.uIgG1 (bispecific antibody)
heavy: not shown
light 1: SYELTQPPSVSVSPGQTASITCSGSELPKRYAYWYQQKPGQSIVRVIYKDSERPSGISERFSGSSSGNTATLTISGTQAMDEADYYCSSTYGDRKLPIFGGGTKLTVLGQPKAAPSVTLFPPSSEELQANKATLVCLISDFYPGAVTVAWKADSSPVKAGVETTTPSKQSNNKYAASSYLSLTPEQWKSHKSYSCQVTHEGSTVEKTVAPTECS
light 2: SYVLTQPPSVSVAPGQTARMTCGGDNIGIKIVHWYQQKAGQAPVLVVYDDNDRPSGIPDRFSGSNSGNTATLTISRVAAGDEADYYCQVWDRRSDHVVFGGGTKLTVLPDIQNPDPAVYQLRDSKSSDKSVCLFTDFDSQTQCSQSKDSDVYITDKCVLDMRSMDFKSNSAVAWSQKSDFACANAFQNCIIPEDTFFPS
notes: also called T8311-51
B12: T8311-U14T2.G25R-49.uIgG1 (bispecific antibody)
heavy: not shown
light 1: SYELTQPPSVSVSPGQTASITCSGSELPKRYAYWYQQKPGQSIVRVIYKDSERPSGISERFSGSSSGNTATLTISGTQAMDEADYYCSSTYGDRKLPIFGGGTKLTVLGQPKAAPSVTLFPPSSEELQANKATLVCLISDFYPGAVTVAWKADSSPVKAGVETTTPSKQSNNKYAASSYLSLTPEQWKSHKSYSCQVTHEGSTVEKTVAPTECS
light 2: SYVLTQPPSVSVAPGQTARMTCGGDNIGIKIVHWYQQKAGQAPVLVVYDDNDRPSGIPDRFSGSNSGNTATLTISRVAAGDEADYYCQVWDRRSDHVVFGGGTKLTVLPDIQNPDPAVYQLRDSKSSDKSVCLFTDFDSQTQVSQSCDSDVYITDKCVLDMRSMDFKSNSAVAWSQKSDFACANAFQCSIIPEDTFFPS
notes: also called T8311-49

In this assay the target is T1, Human PD-L1 (human, UniProt Q9NZQ7 19-290).
T1 construct: whole, on cells; also called target-A
T1 sequence (Q9NZQ7 19-290): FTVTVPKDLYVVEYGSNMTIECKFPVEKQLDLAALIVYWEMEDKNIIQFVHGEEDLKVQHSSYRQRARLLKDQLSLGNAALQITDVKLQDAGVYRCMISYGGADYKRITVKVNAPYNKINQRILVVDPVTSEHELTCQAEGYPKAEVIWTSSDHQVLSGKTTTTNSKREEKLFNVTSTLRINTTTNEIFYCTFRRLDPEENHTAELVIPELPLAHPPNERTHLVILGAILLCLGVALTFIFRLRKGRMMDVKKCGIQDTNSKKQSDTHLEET
Put plainly: flow cytometry on CHO-K1 cells expressing human PD-L1. The method, then:
Human PD-L1-expressing cells W315-CHOK1.hPro1.C11 (×10^5 cells/well) and 4-1BB-expressing cells WBP342-CHO-K1.hPro1.C1 were incubated with various concentrations of testing antibodies at 4° C. for 1 hour. […] The cells were then washed and resuspended in DPBS with 1% BSA. MFI of the cells was measured by a flow cytometer and analyzed by FlowJo.
As shown in FIG. 7 and Table 7, compared to the reference molecule, the T8311 variants kept the target binding ability very well.
In general terms: A flow cytometer gives signals particle by particle.
Usually EC50 stands for the concentration giving half of the maximal effect. The low end stands for a more potent agent, the high end for a less potent agent. As for B1, the midpoint of the response, the EC50, lay at 0.184 nM and the “Top (MFI)” value came to 8330 MFI.
The like results for B2 were, in that order, 0.186 nM and 8110 MFI.
In the case of B3, the EC50 was 0.192 nM and the “Top (MFI)” value amounted to 8240 MFI.
On to B4, for which the EC50 was determined as 0.205 nM and the “Top (MFI)” value was determined as 8120 MFI.
Take B5: the response was half-maximal at 0.256 nM (EC50) and the “Top (MFI)” value amounted to 8130 MFI.
In the case of B6, the EC50 amounted to 0.177 nM and the “Top (MFI)” value turned out to be 8150 MFI.
For B7, it took 0.187 nM to reach a half-maximal effect (EC50) and the “Top (MFI)” value stood at 8060 MFI.
As for B8, it took 0.215 nM to reach a half-maximal effect (EC50) and the “Top (MFI)” value worked out at 7860 MFI.
The corresponding values for B9 are 0.19 nM and 7990 MFI.
Turning to B10, the EC50 turned out to be 0.22 nM and the “Top (MFI)” value turned out to be 8150 MFI.
The like results for B11 were, in that order, 0.213 nM and 8120 MFI.
The corresponding values for B12 are 0.153 nM and 8130 MFI.
